Measured values taken from the supplement of paper PMC9876800.

System: peptide library, one residue held at a place counted from the S/T acceptor
Experiment: relative phosphorylation of the sub-library (ratio to the mean residue at this position); human; higher = residue favoured
Outline: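 Purified recombinant kinases were reacted in 384-well plates with biotinylated degenerate peptide sub-libraries, each having one residue fixed at one position around a central Ser/Thr. The reaction mix contained 50 μM peptide plus 50 μM ATP spiked with γ-32P-ATP and ran for 90 min under kinase-specific conditions. Relative sub-library phosphorylation, taken from densitometry of phosphorimaged streptavidin membrane spots, is a ratio to the mean residue at that position.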

Chain of BRSK2, construct: Full length (Q8IWQ3 whole entry, looked up): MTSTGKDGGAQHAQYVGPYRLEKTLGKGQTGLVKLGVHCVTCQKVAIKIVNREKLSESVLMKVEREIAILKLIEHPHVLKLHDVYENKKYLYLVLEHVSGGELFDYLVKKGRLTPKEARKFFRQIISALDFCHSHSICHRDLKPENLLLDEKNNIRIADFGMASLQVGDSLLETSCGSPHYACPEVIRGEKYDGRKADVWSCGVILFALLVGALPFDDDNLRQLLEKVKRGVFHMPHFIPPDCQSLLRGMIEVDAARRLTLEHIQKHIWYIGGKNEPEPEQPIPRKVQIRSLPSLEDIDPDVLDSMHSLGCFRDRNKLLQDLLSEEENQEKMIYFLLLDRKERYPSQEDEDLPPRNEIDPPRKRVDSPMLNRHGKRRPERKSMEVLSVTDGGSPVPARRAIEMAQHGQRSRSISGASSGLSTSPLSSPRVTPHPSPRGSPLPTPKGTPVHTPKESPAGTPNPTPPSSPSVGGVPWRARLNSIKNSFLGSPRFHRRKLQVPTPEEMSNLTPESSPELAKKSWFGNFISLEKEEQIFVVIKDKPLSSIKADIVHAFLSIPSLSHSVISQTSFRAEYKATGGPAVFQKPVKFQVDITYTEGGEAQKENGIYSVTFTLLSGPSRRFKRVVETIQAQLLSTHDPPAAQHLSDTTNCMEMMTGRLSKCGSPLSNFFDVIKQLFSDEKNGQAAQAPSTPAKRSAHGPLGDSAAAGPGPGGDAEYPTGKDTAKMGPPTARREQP

BRSK2, construct: Full length (from UniProt Q8IWQ3)
relative phosphorylation
Conditions	at +1	at +2	at +3	at +4	at -1	at -2	at -3	at -4	at -5
A fixed	0.653	0.569	0.726	0.598	1.07	1.91	0.829	1.14	1.01
D fixed	0.341	0.505	1.34	0.41	0.539	0.816	0.264	0.367	0.357
E fixed	0.396	0.471	0.574	0.299	0.433	0.659	0.257	0.435	0.355
F fixed	2.02	1.69	1.95	1.3	0.867	1.19	0.728	0.686	1.2
G fixed	0.53	0.464	0.85	0.562	1.3	1.35	0.703	1.16	0.964
H fixed	0.802	1.49	1.25	0.718	1.18	1.05	1.31	1.3	0.842
I fixed	1.03	0.679	0.518	3.23	0.674	0.591	0.389	0.522	1.08
K fixed	0.624	0.337	0.775	0.727	1.53	1.04	2.71	2.04	1.35
L fixed	1.17	0.739	0.609	3.06	0.956	0.564	0.427	0.58	1.27
M fixed	3.01	0.951	0.675	1.47	1.14	0.664	0.589	0.881	1.33
N fixed	0.925	1.03	2.68	0.671	1.02	0.843	0.681	0.752	0.599
P fixed	0.203	0.489	0.403	0.654	1.55	0.833	0.687	1.58	0.954
Q fixed	1.19	1.01	1.07	0.661	1.12	0.701	0.861	0.913	0.817
R fixed	1.07	0.416	0.916	0.599	1.2	1.35	4.56	2.14	1.71
V fixed	0.914	0.567	0.499	0.876	0.781	0.978	0.405	0.678	0.801
W fixed	0.924	1.98	1.09	0.607	0.642	1.34	0.886	0.976	1.12
Y fixed	1.2	3.62	1.08	0.559	1.01	1.13	0.711	0.844	1.24
pThr fixed	0.909	0.54	0.378	0.452	0.332	0.451	0.401	0.624	0.6
pTyr fixed	0.419	0.504	0.571	0.287	0.899	0.366	0.376	0.533	0.594
